Values of other authors as cited in publication PMC9528908.

Experiments:
Asp66 = Asp66 (UniProt position 148, FTKKMDENAKK); experiment: stability
Glu66 = Glu66 (UniProt position 148, FTKKMEENAKK); experiment: stability

Substance: Staphylococcal nuclease (SNase) V66D variant (Staphylococcus aureus; V66D)
- pKa (Asp66): 8.45–9.03

Substance: Staphylococcal nuclease (SNase) V66E variant (Staphylococcus aureus; V66E)
- pKa (Glu66): 8.73–9.28
